The target of experiment [1] is bovine 20S proteasome (bovine) (UniProt Q2YDE4).
In experiment [2] the target is T1, recombinant wildtype human PI31 (Proteasome Inhibitor of 31,000 Da) (human), Q92530.
T1 chain: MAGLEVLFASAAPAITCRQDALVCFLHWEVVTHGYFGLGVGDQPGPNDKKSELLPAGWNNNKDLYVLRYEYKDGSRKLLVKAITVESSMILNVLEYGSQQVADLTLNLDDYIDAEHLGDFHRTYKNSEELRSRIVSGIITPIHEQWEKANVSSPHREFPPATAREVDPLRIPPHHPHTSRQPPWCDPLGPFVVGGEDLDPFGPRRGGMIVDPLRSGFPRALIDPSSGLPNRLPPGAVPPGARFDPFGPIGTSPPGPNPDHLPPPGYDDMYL
The experiment is described as follows: mass photometry; monomer to dimer; His-PI31 diluted to 40 nM total monomer in PBS, recorded immediately after mixing (TwoMP, Refeyn); peaks at 36 to 37 and 56 to 59 kDa. To be noted: remark: other sources report otherwise.

Where a chain is given by its changes, count along the chain named. In names and notes the source's numbering stands.

B1: human PI31 D197A point mutant (natural protein)
chain: T1 chain with D197A
For the molecule B1, the inhibition of β5-specific peptide hydrolysis by 20S (143 nM 20S, 1.4 μM PI31) (times less well than wildtype hPI31) in experiment [1] worked out at 3.

B2: recombinant wildtype human PI31 (Proteasome Inhibitor of 31,000 Da), Q92530 1-271 (natural protein)
chain: T1 chain
For B2, in experiment [2], the [monomer]/[M]T ratio was 0.32, the dimer counts (mass photometry) worked out at 2060 counts, the monomer counts (mass photometry) turned out to be 2180 counts and the stoichiometry N was 2.

The stoichiometry N is the number of molecules, sites or subunits per partner or assembly.

For the origin of these results see article PMC10319324.
